Square brackets hold non-standard residues; d marks the D form. * marks the point of attachment. Fmoc = O=C(OCC1c2ccccc2-c2ccccc21)*; Cbz = O=C(OCc1ccccc1)*; βAla = NCCC(=O)O

Usually IC50 stands for the concentration that gives 50% inhibition. One may read the Kd as a measure of binding affinity in units of concentration. Read a high Kd as a looser complex.

Experiment [1] has as its target T1, Gadd45β/MKK7 complex (biotin-hGadd45β with coated GST-MKK7, ELISA format) (human) (UniProt O75293).
T1 sequence (biotinylated (sites not stated), looked up) 1: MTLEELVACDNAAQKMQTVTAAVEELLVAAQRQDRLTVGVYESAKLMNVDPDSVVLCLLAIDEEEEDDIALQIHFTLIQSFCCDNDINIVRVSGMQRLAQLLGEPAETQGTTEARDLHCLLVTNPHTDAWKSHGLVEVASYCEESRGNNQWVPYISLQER
T1 sequence (biotinylated (sites not stated), looked up) 2: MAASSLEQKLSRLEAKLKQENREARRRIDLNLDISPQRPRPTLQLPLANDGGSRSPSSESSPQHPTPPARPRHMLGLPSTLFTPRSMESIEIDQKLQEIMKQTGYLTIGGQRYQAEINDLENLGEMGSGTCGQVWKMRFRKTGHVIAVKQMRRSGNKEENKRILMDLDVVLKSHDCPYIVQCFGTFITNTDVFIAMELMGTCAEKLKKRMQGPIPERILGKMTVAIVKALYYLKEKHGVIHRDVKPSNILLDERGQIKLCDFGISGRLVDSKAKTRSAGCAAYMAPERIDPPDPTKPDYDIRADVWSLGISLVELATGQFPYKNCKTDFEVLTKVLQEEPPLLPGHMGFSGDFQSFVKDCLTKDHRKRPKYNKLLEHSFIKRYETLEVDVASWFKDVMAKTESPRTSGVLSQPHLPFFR
Briefly: competition ELISA; coated MKK7 42 nM, biotin-hGadd45β 21 nM, competitor 42 nM nominal. (In an ELISA, binding on a coated surface is turned into a signal by an enzyme label.)

The target in experiment [2] is T1, Gadd45β/MKK7 complex (biotin-hGadd45β with coated GST-MKK7, ELISA format) (human). The experiment in a line: competition ELISA; coated GST-MKK7 42 nM, biotin-hGadd45β 21 nM.
Experiment [3] shares this target. Briefly: derived from the in vitro ELISA competition IC50 (Gadd45β/MKK7).
Experiment [4] shares this target. Briefly: competition ELISA after 48-hr pre-incubation of the peptide with human serum at 37 °C.
Experiment [5] shares this target. The experiment in a line: ELISA competition assay: coated MKK7, soluble biotin-hGadd45β; peptide pre-incubated 48 hr with human serum at 37° C.; after 48-hr incubation with human serum at 37° C.
Experiment [6] has the same target. The experiment in a line: competition ELISA; coated MKK7, biotin-hGadd45β (FIG. 3C).
For experiment [7], the target named is T2, MKK7KD (constitutively active kinase domain of MKK7, residues 101 to 405, S287D and T291D, His6 fusion) (UniProt O14733-3 101-405).
T2 construct: range 101-405; also called MKKKD; not shown: His6 tag
T2 sequence (looked up): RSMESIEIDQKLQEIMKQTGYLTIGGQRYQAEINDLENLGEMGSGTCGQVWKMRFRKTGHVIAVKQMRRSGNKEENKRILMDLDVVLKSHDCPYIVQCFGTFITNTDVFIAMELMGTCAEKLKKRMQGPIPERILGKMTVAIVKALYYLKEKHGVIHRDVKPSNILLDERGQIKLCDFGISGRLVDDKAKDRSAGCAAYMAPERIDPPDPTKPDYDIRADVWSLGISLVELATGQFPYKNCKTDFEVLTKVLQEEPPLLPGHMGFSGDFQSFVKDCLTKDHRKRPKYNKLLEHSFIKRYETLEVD
Briefly: SPR (Biacore 3000), Gadd45β immobilized, MKK7KD injected at 1-25 nM. As for the experimental part: On another channel the same procedure of activation with EDC/NHS and inactivation with ethanolamine was performed.
For orientation: Surface plasmon resonance follows binding to a sensor surface in real time, without labels.

Experiment [8] deals with T2, MKK7KD (constitutively active kinase …). The experiment in a line: SPR (Biacore 3000), MKK7KD immobilized, Gadd45β injected at 20-200 nM.
Experiment [9] deals with T3, Gadd45β/MKK7 complex (biotin-hGadd45β with coated GST-MKK7, ELISA format) (human, UniProt O75293 1-160; O14733 1-419, biotinylated (sites not given)).
T3 construct: not shown: glutathione S-transferase (GST) fusion partner
T3 sequence (looked up) 1: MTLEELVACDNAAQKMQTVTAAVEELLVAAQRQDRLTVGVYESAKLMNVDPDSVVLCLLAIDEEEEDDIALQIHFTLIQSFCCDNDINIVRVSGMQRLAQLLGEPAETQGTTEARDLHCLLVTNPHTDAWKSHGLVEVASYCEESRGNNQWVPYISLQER
T3 sequence (looked up) 2: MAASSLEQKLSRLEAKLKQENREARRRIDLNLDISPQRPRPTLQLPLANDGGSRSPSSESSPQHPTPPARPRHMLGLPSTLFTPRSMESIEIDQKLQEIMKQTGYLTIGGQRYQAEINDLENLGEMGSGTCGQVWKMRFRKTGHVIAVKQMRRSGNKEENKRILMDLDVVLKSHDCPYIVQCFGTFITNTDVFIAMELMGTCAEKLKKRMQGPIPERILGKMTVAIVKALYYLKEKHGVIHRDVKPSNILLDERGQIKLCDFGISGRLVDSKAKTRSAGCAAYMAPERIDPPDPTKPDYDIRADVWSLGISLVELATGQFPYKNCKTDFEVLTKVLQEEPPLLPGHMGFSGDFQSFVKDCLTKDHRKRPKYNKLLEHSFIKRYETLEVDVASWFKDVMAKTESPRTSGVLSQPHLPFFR
The experiment in a line: competition ELISA; coated GST-MKK7, biotin-hGadd45β; single dose.

The target in experiment [10] is T3, Gadd45β/MKK7 complex (biotin-hGadd45β …). Briefly: ELISA competition: coated GST-MKK7 (42 nM), soluble biotin-hGadd45β (21 nM), increasing peptide; read-out % binding of biotin-hGadd45β to MKK7.

In experiment [1], “Fmoc(βAla)2-YDHQ-NH2 as printed in row r19 of Table I” registered a % Inhibition of Gadd45β-MKK7 binding of 26%. On to “mDTP3 (Ac-D-Tyr-D-Arg-D-Phe-NH2) (peptide)”, for which the IC50 in [2] was found to be 0.157 nM. Also, in [3], the Ligand Efficiency was -0.24. In the case of Cbz-[dY][dE][dR][dF]-NH2 [Z-DTP2 (Z-D-Tyr-D-Glu-D-Arg-D-Phe-NH2)], the half-maximal inhibitory concentration (IC50) is 0.19 nM in [2], 0.18 nM in experiment [4] and 0.18 nM in experiment [5]. The Ligand Efficiency in [3] is -0.26.

B1: DTP2, Acetyl-(D-Tyr)-(D-Glu)-(D-Arg)-(D-Phe)-NH2 (peptide)
peptide: Ac-[dY][dE][dR][dF]-NH2
SMILES: CC(=O)N[C@H](Cc1ccc(O)cc1)C(=O)N[C@H](CCC(=O)O)C(=O)N[C@H](CCCNC(=N)N)C(=O)N[C@H](Cc1ccccc1)C(N)=O
In experiment [6], B1 gave an IC50 of 0.19 nM.

B2: Fmoc(βAla)2-YDHR-NH2 (peptide)
peptide: {Fmoc-βAla-βAla}-YDHR-NH2
SMILES: N=C(N)NCCC[C@H](NC(=O)[C@H](Cc1c[nH]cn1)NC(=O)[C@H](CC(=O)O)NC(=O)[C@H](Cc1ccc(O)cc1)NC(=O)CCNC(=O)CCNC(=O)OCC1c2ccccc2-c2ccccc21)C(N)=O
As to B2, in experiment [1], the % Inhibition of Gadd45β-MKK7 binding was found to be 2%.

B3: Full length human Gadd45β (other, UniProt O75293 1-160, looked up)
chain: MTLEELVACDNAAQKMQTVTAAVEELLVAAQRQDRLTVGVYESAKLMNVDPDSVVLCLLAIDEEEEDDIALQIHFTLIQSFCCDNDINIVRVSGMQRLAQLLGEPAETQGTTEARDLHCLLVTNPHTDAWKSHGLVEVASYCEESRGNNQWVPYISLQER
notes: also called Gadd45β (SPR)
For the molecule B3, the Kd in experiment [7] is 3.4 nM; in experiment [8], 4 nM.

B4: DTP1, Acetyl-(D-Tyr)-(D-Asp)-(D-His)-(D-Phe)-NH2 (peptide)
peptide: Ac-[dY][dD][dH][dF]-NH2
SMILES: CC(=O)N[C@H](Cc1ccc(O)cc1)C(=O)N[C@H](CC(=O)O)C(=O)N[C@H](Cc1c[nH]cn1)C(=O)N[C@H](Cc1ccccc1)C(N)=O
In experiment [6], B4 registered an IC50 of 0.22 nM. Consider Ac-YDHF-NH2 (also called Ac-LTP1; LTP1) [Ac-YDHF-NH2], for which, in experiment [9], the “% Inhibition of Gadd45β-MKK7 binding” value was 94%. In addition, the 50% inhibitory concentration (IC50) in experiment [10] turned out to be 0.4 nM. In the case of Cbz-[dY][dD][dH][dF]-NH2 [Z-Tyr-Asp-His-Phe-NH2 (Z-DTP1)], the half-maximal inhibitory concentration (IC50) was 0.22 nM in experiment [2], 0.19 nM in experiment [4] and 0.19 nM in [5]. As to Ac-YERF-NH2 (also called Ac-LTP2; LTP2) [Ac-YERF-NH2], in [9], the “% Inhibition of Gadd45β-MKK7 binding” value stood at 93%. The IC50 in experiment [10] turned out to be 0.4 nM.

Values taken from patent publication US20120277164A1 (IMPERIAL INNOVATIONS, published 2012).
